Measurements from PMC2856262.
Like-named read-outs stand apart in the source and are kept apart here. One block for each substance: values may come before it.

Experiments:
[1] = target: Rat MBL, deletion mutant (one Gly-Xaa-Yaa triplet removed from the collagenous domain) (rat) (UniProt P19999); experiment: SPR
[2] = target: Rat MBL, double-deletion mutant (two Gly-Xaa-Yaa triplets removed from the collagenous domain) (rat) (UniProt P19999); experiment: SPR
[3] = target: Rat MBL, insertion mutant (a single Gly-Pro-Hyp inserted near the kink-like region) (rat) (UniProt P19999); experiment: SPR
[4] = target: Rat MBL, kink mutant (kink-like region removed by insertion of a proline residue) (rat) (UniProt P19999); experiment: SPR
[5] = target: Recombinant rat mannose-binding lectin (MBL), wild-type (rat) (UniProt P19999); experiment: SPR
[6] = target: SPA-KL (SP-A with Glu63 to Lys and Cys64 to Leu); experiment: SPR
[7] = target: SPA-KLP (SP-A with Glu63 to Lys, Cys64 to Leu and Glu66 to Pro); experiment: SPR
[8] = target: SPA-KLPO (SPA-KLP with Lys67 replaced by hydroxyproline); experiment: SPR
[9] = target: SPA-KLPOS (SPA-KLPO with the cysteine of the kink replaced by serine); experiment: SPR
[10] = target: SPA-KLPOdel (SPA-KLPO with the kink sequence PCPP removed); experiment: SPR
[11] = target: Recombinant rat mannose-binding lectin (MBL), wild-type (rat) (UniProt P19999); experiment: SPR; remark: listed apart in the source
[12] = target: SPA-KLP (SP-A with Glu63 to Lys, Cys64 to Leu and Glu66 to Pro)
[13] = target: SPA-KLPO (SPA-KLP with Lys67 replaced by hydroxyproline)
[14] = target: SPA-KLPOS (SPA-KLPO with the cysteine of the kink replaced by serine)
[15] = target: SPA-KLPOdel (SPA-KLPO with the kink sequence PCPP removed)

- KD, complex 2 [1]: 175 nM
- koff, complex 2 [1]: 0.0054 s⁻¹
- KD, complex 2 [2]: 195 nM
- KD, complex 2 [3]: 199 nM
- KD, complex 2 [4]: 136 nM
- KD, complex 2 [5]: 165 nM
- koff, complex 2 [5]: 0.00475 s⁻¹
- KD, complex 2 [6]: 2120 nM
- KD, complex 2 [7]: 104 nM
- koff, complex 2 [7]: 0.0176 s⁻¹
- kon, complex 2 [7]: 360000 M⁻¹ s⁻¹
- KD, complex 2 [8]: 232 nM
- koff, complex 2 [8]: 0.022 s⁻¹
- kon, complex 2 [8]: 96000 M⁻¹ s⁻¹
- KD, complex 2 [9]: 203 nM
- koff, complex 2 [9]: 0.037 s⁻¹
- kon, complex 2 [9]: 210000 M⁻¹ s⁻¹
- KD, complex 2 [10]: 114 nM
- koff, complex 2 [10]: 0.021 s⁻¹
- KD, complex 2 [11]: 166 nM
Substance: MASP-2A (rat MBL-associated serine protease-2, catalytically inactive, Ser613 to Ala) (enzyme)
- koff, complex 1 [1]: 0.0038 s⁻¹
- KD, complex 1 [3]: 4.9 nM
- koff, complex 1 [4]: 0.0062 s⁻¹
- kon, complex 1 [7]: 54000 M⁻¹ s⁻¹
- KD, complex 1 [8]: 97 nM
- koff, complex 1 [8]: 0.0025 s⁻¹
- kon, complex 1 [8]: 26000 M⁻¹ s⁻¹
- KD, complex 1 [9]: 99 nM
- koff, complex 1 [9]: 0.0046 s⁻¹
- kon, complex 1 [9]: 45000 M⁻¹ s⁻¹
- KD, complex 1 [10]: 29 nM
- koff, complex 1 [10]: 0.0017 s⁻¹
- kon, complex 1 [10]: 53000 M⁻¹ s⁻¹
- KD, complex 1 [11]: 3.8 nM

- Half-time for MASP-2K activation, fucose-Sepharose as target [12]: 270 min
- Half-time for MASP-2K activation, fucose-Sepharose as target [13]: 256 min
- Half-time for MASP-2K activation, fucose-Sepharose as target [14]: 166 min
- Half-time for MASP-2K activation, fucose-Sepharose as target [15]: 316 min
Substance: MASP-2K (rat MBL-associated serine protease-2, catalytically active, Arg424 to Lys) (enzyme)
